Literature values, collected in PMC3877032.

Legend:
PLD1 (Homo sapiens) = PLD1 (Homo sapiens) (UniProt Q13393)
ERK2 (Homo sapiens) = ERK2 (Homo sapiens) (UniProt P28482)
UniProt P28482, sequence (P28482 2-360): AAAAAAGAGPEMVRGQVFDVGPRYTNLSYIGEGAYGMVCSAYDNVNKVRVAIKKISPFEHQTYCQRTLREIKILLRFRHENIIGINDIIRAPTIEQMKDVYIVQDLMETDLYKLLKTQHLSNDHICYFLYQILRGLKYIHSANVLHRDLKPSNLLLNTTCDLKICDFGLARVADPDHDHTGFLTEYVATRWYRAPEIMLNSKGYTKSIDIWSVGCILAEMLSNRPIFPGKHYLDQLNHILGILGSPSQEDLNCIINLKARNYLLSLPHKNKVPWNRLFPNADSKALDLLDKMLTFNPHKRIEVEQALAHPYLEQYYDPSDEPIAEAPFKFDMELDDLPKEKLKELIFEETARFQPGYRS

UniProt Q13393, sequence (Q13393 whole entry): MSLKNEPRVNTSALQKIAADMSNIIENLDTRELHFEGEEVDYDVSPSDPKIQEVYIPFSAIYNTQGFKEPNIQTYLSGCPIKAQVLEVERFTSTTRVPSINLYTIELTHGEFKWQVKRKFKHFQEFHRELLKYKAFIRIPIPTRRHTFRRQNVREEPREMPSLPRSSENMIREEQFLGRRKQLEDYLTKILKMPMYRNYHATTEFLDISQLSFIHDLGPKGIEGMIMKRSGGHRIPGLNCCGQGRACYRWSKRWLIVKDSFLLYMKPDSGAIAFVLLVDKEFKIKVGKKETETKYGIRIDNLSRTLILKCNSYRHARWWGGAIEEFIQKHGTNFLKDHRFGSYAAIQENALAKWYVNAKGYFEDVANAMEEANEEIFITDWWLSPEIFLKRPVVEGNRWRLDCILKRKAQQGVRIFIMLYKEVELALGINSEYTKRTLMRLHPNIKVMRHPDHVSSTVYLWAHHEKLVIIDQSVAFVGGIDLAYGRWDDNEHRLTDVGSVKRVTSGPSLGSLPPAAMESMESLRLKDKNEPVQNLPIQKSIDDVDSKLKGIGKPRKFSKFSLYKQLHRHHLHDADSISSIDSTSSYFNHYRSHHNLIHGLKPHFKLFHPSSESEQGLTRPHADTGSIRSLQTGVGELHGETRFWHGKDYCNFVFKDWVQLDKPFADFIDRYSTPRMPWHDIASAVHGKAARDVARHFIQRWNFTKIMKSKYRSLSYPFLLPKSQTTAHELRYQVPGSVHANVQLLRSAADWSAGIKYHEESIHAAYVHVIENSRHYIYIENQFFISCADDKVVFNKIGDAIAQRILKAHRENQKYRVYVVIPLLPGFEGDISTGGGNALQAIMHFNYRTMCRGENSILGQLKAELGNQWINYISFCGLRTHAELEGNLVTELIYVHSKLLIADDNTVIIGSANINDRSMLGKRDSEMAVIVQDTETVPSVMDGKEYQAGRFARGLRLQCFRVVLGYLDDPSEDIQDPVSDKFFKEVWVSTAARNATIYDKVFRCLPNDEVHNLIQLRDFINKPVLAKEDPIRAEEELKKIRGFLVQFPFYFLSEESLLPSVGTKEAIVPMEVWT

PEA-15 (from UniProt Q15121)
Kd (PLD1 (Homo sapiens)): 370 nM | Kd (ERK2 (Homo sapiens)): 133 nM
